Experimental data: PMC4726124, “Peptides in headlock – a novel high-affinity and versatile peptide-binding nanobody for proteomics and microscopy” (Scientific Reports, 2016)

Target: T1, GFP with a C-terminal BC2 tag (BC2 tag (beta-catenin 16-27) on GFP, chimera)
T1 construct: GFP ('modified GFP that contains BC2T as a C-terminal peptide tag'; its control is called wtGFP); variant and limits are in the Supplementary methods; BC2 tag (BC2T), residues 16-27 of beta-catenin, at the C-terminus; also called GFP_(BC2T); source: E. coli, soluble protein fraction of the lysate (pull-downs); protein expression and purification are told in the Supplementary methods
T1 chain: PDRKAAVSHWQQ
Test: SPR; measurements 'using the GFP_(BC2T) construct'; who was immobilised and the conditions are not told in the text shown (Supplementary methods, Supplementary Fig. 3)
Settings: both partners purified

B1: BC2 nanobody (VHH)
VHH: QVQLVESGGGLVQPGGSLTLSCTASGFTLDHYDIGWFRQAPGKEREGVSCINNSDDDTYYADSVKGRFTIFMNNAKDTVYLQMNSLKPEDTAIYYCAEARGCKRGRYEYDFWGQGTQVTVSS
notes: In the pull-downs it is covalently coupled to Sepharose beads (BC2 nanotrap); also called BC2-Nb; wt; source: purified; expression and purification are told in the Supplementary methods
Kd: 1.4 ± 0.06 nM | koff: 0.00064 s⁻¹ | kon: 460000 M⁻¹ s⁻¹
